Test results from patent US11485991B2, “Multifunctional recombinant nucleotide dependent glycosyltransferase protein and its method of glycosylation thereof” (Council of Scientific & Industrial Research, priority 2016, dated 2022).

Tested on: synthetic acceptor substrates
Assay: In vitro glycosyltransferase (GT) assay of GT-CTH mutants with MS detection of glycosylated product
Format: biochemical
Conditions: purified mutant of GT-CTH, acceptor substrate and UDP-glucose, MS analysis
Protocol: Purified recombinant nucleotide dependent glycosyltransferase (0.2 μM) is incubated with synthetic acceptor substrates (5 μM) and 100 μM UDP-glucose in a reaction buffer containing 20 mM HEPES, pH 7.5, 50 mM NaCl, 1 mM TCEP and 1 mM MgCl2. The reaction is incubated at 25° C. for 12 h. Each assay reaction was accompanied by control reaction (without enzyme). The reactions are quenched with 5% TFA to pH 2, desalted using ZipTip C18, and vacuum dried and analyzed using mass spectrometry.
Mass spectrometry has been used to detect glycosylation in product of glycosylation assay reactions using Matrix Assisted Laser Desorption Ionization Time of flight mass spectrometry (MALDI-TOF MS) and Liquid chromatography electrospray ionization mass spectrometry (LC/ESI-MS) techniques. MALDI-TOF MS has carried out at AB Sciex 5800 MALDI TOF/TOF and LC/ESI-MS has carried out at 6550 iFunnel QTOF LC/MS (Agilent Technologies) using Zorbax Eclipse plus C8 column (3.0×150 mm, 5μ) of Agilent technologies. For MALDI-TOF analysis and LC-ESI/MS analysis, vacuum dried samples are reconstituted in water and 0.1% formic acid respectively.
Various mutations are introduced in recombinant nucleotide dependent glycosyltransferase (GT-CTH) using side directed mutagenesis (Quick change lightning Mutagenesis kit, Agilent) using GTpET28a plasmid as template. The sequence of mutants is verified through DNA sequencing. The mutated recombinant plasmids are transformed into E. coli Lemo21(DE3) and E. coli BL21(DE3) cells for expression. The over expression, purification and functional analysis of mutants of recombinant nucleotide dependent glycosyltransferase proteins are performed using the above mentioned methods. The list of mutants of recombinant nucleotide dependent glycosyltransferase, created in accordance with present invention identifies D102, R136, W147, D152, A153, D154 residues critical for activity of recombinant nucleotide dependent glycosyltransferase (GT-CTH). Replacement of these residues to alanine results into abolishment of the glycosyltransferase activity.

Molecule	In vitro glycosyltransferase activity status
GT-CTH D131A (protein) MGYSENFIANDWFNVEVFNKNKYTLTNQENKDVTELWLQILKGLKFPNELKETVSYSKNLKELSLKTHAEVSVCIIAKNEQDSIRKCINSIYEFSDEIIFIDTGSIDSTKKIVKEIASEKVKIFDYTWQDAFSDARNYSIQKASKEWILIIDADEYVSSDELIKLRLLIDMLDRFKFKDSLRVSCAIYQLDNVITHGQSRLFRNNNKIKYYGLIHEELRNNKGLDPIFNVESEITFFHDGYKEILRKEKCERNIRLLAKMLEKEPDNVRWAYLYCRDSFSINSNIDFEKILLPFLIKNMDESISCENILLTNYTHLILFLITKKYIIDGKSSLASKCIEVLEKMLPNSSDVTFYKFLNKQHSLYEQQFEFLKEVIQFRKNNEYDQYSQIGCNLLHYDLLISGLLFDVKSYDYSYQYFLKLDLANYFSELEIPDEYKMLINKYRENESLEHHHHHH	Active
GT-CTH D130A, D131A (protein) MGYSENFIANDWFNVEVFNKNKYTLTNQENKDVTELWLQILKGLKFPNELKETVSYSKNLKELSLKTHAEVSVCIIAKNEQDSIRKCINSIYEFSDEIIFIDTGSIDSTKKIVKEIASEKVKIFDYTWQAAFSDARNYSIQKASKEWILIIDADEYVSSDELIKLRLLIDMLDRFKFKDSLRVSCAIYQLDNVITHGQSRLFRNNNKIKYYGLIHEELRNNKGLDPIFNVESEITFFHDGYKEILRKEKCERNIRLLAKMLEKEPDNVRWAYLYCRDSFSINSNIDFEKILLPFLIKNMDESISCENILLTNYTHLILFLITKKYIIDGKSSLASKCIEVLEKMLPNSSDVTFYKFLNKQHSLYEQQFEFLKEVIQFRKNNEYDQYSQIGCNLLHYDLLISGLLFDVKSYDYSYQYFLKLDLANYFSELEIPDEYKMLINKYRENESLEHHHHHH	Inactive
GT-CTH D154A (protein) MGYSENFIANDWFNVEVFNKNKYTLTNQENKDVTELWLQILKGLKFPNELKETVSYSKNLKELSLKTHAEVSVCIIAKNEQDSIRKCINSIYEFSDEIIFIDTGSIDSTKKIVKEIASEKVKIFDYTWQDDFSDARNYSIQKASKEWILIIDAAEYVSSDELIKLRLLIDMLDRFKFKDSLRVSCAIYQLDNVITHGQSRLFRNNNKIKYYGLIHEELRNNKGLDPIFNVESEITFFHDGYKEILRKEKCERNIRLLAKMLEKEPDNVRWAYLYCRDSFSINSNIDFEKILLPFLIKNMDESISCENILLTNYTHLILFLITKKYIIDGKSSLASKCIEVLEKMLPNSSDVTFYKFLNKQHSLYEQQFEFLKEVIQFRKNNEYDQYSQIGCNLLHYDLLISGLLFDVKSYDYSYQYFLKLDLANYFSELEIPDEYKMLINKYRENESLEHHHHHH	Inactive
GT-CTH A153R (protein) MGYSENFIANDWFNVEVFNKNKYTLTNQENKDVTELWLQILKGLKFPNELKETVSYSKNLKELSLKTHAEVSVCIIAKNEQDSIRKCINSIYEFSDEIIFIDTGSIDSTKKIVKEIASEKVKIFDYTWQDDFSDARNYSIQKASKEWILIIDRDEYVSSDELIKLRLLIDMLDRFKFKDSLRVSCAIYQLDNVITHGQSRLFRNNNKIKYYGLIHEELRNNKGLDPIFNVESEITFFHDGYKEILRKEKCERNIRLLAKMLEKEPDNVRWAYLYCRDSFSINSNIDFEKILLPFLIKNMDESISCENILLTNYTHLILFLITKKYIIDGKSSLASKCIEVLEKMLPNSSDVTFYKFLNKQHSLYEQQFEFLKEVIQFRKNNEYDQYSQIGCNLLHYDLLISGLLFDVKSYDYSYQYFLKLDLANYFSELEIPDEYKMLINKYRENESLEHHHHHH	Inactive
GT-CTH R136A (protein) MGYSENFIANDWFNVEVFNKNKYTLTNQENKDVTELWLQILKGLKFPNELKETVSYSKNLKELSLKTHAEVSVCIIAKNEQDSIRKCINSIYEFSDEIIFIDTGSIDSTKKIVKEIASEKVKIFDYTWQDDFSDAANYSIQKASKEWILIIDADEYVSSDELIKLRLLIDMLDRFKFKDSLRVSCAIYQLDNVITHGQSRLFRNNNKIKYYGLIHEELRNNKGLDPIFNVESEITFFHDGYKEILRKEKCERNIRLLAKMLEKEPDNVRWAYLYCRDSFSINSNIDFEKILLPFLIKNMDESISCENILLTNYTHLILFLITKKYIIDGKSSLASKCIEVLEKMLPNSSDVTFYKFLNKQHSLYEQQFEFLKEVIQFRKNNEYDQYSQIGCNLLHYDLLISGLLFDVKSYDYSYQYFLKLDLANYFSELEIPDEYKMLINKYRENESLEHHHHHH	Inactive
GT-CTH F132A (protein) MGYSENFIANDWFNVEVFNKNKYTLTNQENKDVTELWLQILKGLKFPNELKETVSYSKNLKELSLKTHAEVSVCIIAKNEQDSIRKCINSIYEFSDEIIFIDTGSIDSTKKIVKEIASEKVKIFDYTWQDDASDARNYSIQKASKEWILIIDADEYVSSDELIKLRLLIDMLDRFKFKDSLRVSCAIYQLDNVITHGQSRLFRNNNKIKYYGLIHEELRNNKGLDPIFNVESEITFFHDGYKEILRKEKCERNIRLLAKMLEKEPDNVRWAYLYCRDSFSINSNIDFEKILLPFLIKNMDESISCENILLTNYTHLILFLITKKYIIDGKSSLASKCIEVLEKMLPNSSDVTFYKFLNKQHSLYEQQFEFLKEVIQFRKNNEYDQYSQIGCNLLHYDLLISGLLFDVKSYDYSYQYFLKLDLANYFSELEIPDEYKMLINKYRENESLEHHHHHH	Active
GT-CTH D152A (protein) MGYSENFIANDWFNVEVFNKNKYTLTNQENKDVTELWLQILKGLKFPNELKETVSYSKNLKELSLKTHAEVSVCIIAKNEQDSIRKCINSIYEFSDEIIFIDTGSIDSTKKIVKEIASEKVKIFDYTWQDDFSDARNYSIQKASKEWILIIAADEYVSSDELIKLRLLIDMLDRFKFKDSLRVSCAIYQLDNVITHGQSRLFRNNNKIKYYGLIHEELRNNKGLDPIFNVESEITFFHDGYKEILRKEKCERNIRLLAKMLEKEPDNVRWAYLYCRDSFSINSNIDFEKILLPFLIKNMDESISCENILLTNYTHLILFLITKKYIIDGKSSLASKCIEVLEKMLPNSSDVTFYKFLNKQHSLYEQQFEFLKEVIQFRKNNEYDQYSQIGCNLLHYDLLISGLLFDVKSYDYSYQYFLKLDLANYFSELEIPDEYKMLINKYRENESLEHHHHHH	Inactive
GT-CTH D131A, F132D (protein) MGYSENFIANDWFNVEVFNKNKYTLTNQENKDVTELWLQILKGLKFPNELKETVSYSKNLKELSLKTHAEVSVCIIAKNEQDSIRKCINSIYEFSDEIIFIDTGSIDSTKKIVKEIASEKVKIFDYTWQDADSDARNYSIQKASKEWILIIDADEYVSSDELIKLRLLIDMLDRFKFKDSLRVSCAIYQLDNVITHGQSRLFRNNNKIKYYGLIHEELRNNKGLDPIFNVESEITFFHDGYKEILRKEKCERNIRLLAKMLEKEPDNVRWAYLYCRDSFSINSNIDFEKILLPFLIKNMDESISCENILLTNYTHLILFLITKKYIIDGKSSLASKCIEVLEKMLPNSSDVTFYKFLNKQHSLYEQQFEFLKEVIQFRKNNEYDQYSQIGCNLLHYDLLISGLLFDVKSYDYSYQYFLKLDLANYFSELEIPDEYKMLINKYRENESLEHHHHHH	Inactive
GT-CTH W147A (protein) MGYSENFIANDWFNVEVFNKNKYTLTNQENKDVTELWLQILKGLKFPNELKETVSYSKNLKELSLKTHAEVSVCIIAKNEQDSIRKCINSIYEFSDEIIFIDTGSIDSTKKIVKEIASEKVKIFDYTWQDDFSDARNYSIQKASKEAILIIDADEYVSSDELIKLRLLIDMLDRFKFKDSLRVSCAIYQLDNVITHGQSRLFRNNNKIKYYGLIHEELRNNKGLDPIFNVESEITFFHDGYKEILRKEKCERNIRLLAKMLEKEPDNVRWAYLYCRDSFSINSNIDFEKILLPFLIKNMDESISCENILLTNYTHLILFLITKKYIIDGKSSLASKCIEVLEKMLPNSSDVTFYKFLNKQHSLYEQQFEFLKEVIQFRKNNEYDQYSQIGCNLLHYDLLISGLLFDVKSYDYSYQYFLKLDLANYFSELEIPDEYKMLINKYRENESLEHHHHHH	Inactive
GT-CTH Y241A (protein) MGYSENFIANDWFNVEVFNKNKYTLTNQENKDVTELWLQILKGLKFPNELKETVSYSKNLKELSLKTHAEVSVCIIAKNEQDSIRKCINSIYEFSDEIIFIDTGSIDSTKKIVKEIASEKVKIFDYTWQDDFSDARNYSIQKASKEWILIIDADEYVSSDELIKLRLLIDMLDRFKFKDSLRVSCAIYQLDNVITHGQSRLFRNNNKIKYYGLIHEELRNNKGLDPIFNVESEITFFHDGAKEILRKEKCERNIRLLAKMLEKEPDNVRWAYLYCRDSFSINSNIDFEKILLPFLIKNMDESISCENILLTNYTHLILFLITKKYIIDGKSSLASKCIEVLEKMLPNSSDVTFYKFLNKQHSLYEQQFEFLKEVIQFRKNNEYDQYSQIGCNLLHYDLLISGLLFDVKSYDYSYQYFLKLDLANYFSELEIPDEYKMLINKYRENESLEHHHHHH	Active
